B1: KIAA0774 (parent)
chain: FEDEVKRLGWQQQAELQELEERLQ

Variants of: B1
Experiment: protein stability index of a GFP-peptide fusion (GPS, HEK-293T) (PSI 1-6); higher = more stable
Conditions: c terminus: a fixed tail appended
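Note: lentivirally expressed fusions sorted by FACS into six bins by GFP to DsRed ratio, PSI derived from sequencing read proportions per bin multiplied by bin number.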

With FEDEVKRLGWQQQAELQEVEERLQ [L19V] as the variant, how does the protein stability index read?
The protein stability index was 4.53.

With FEDEVKRLGWQQQAELQEREERLQ [L19R] as the variant, how does the protein stability index read?
Its protein stability index is 3.68.

With FEDEVKRLGWQQQAELQEHEERLQ [L19H] as the variant, how does the protein stability index read?
Its protein stability index is 4.08.

With FEDEVKRLGWQQQAELQENEERLQ [L19N] as the variant, how does the protein stability index read?
The protein stability index was 5.2.

For FEDEVKRLGWQQQAELQEMEERLQ [L19M], which protein stability index is on record?
The protein stability index was 4.42.

Which protein stability index does the source give for FEDEVKRLGWQQQAELQEFEERLQ [L19F] here?
The protein stability index was 4.12.

For FEDEVKRLGWQQQAELQECEERLQ [L19C], which protein stability index is on record?
The protein stability index was 4.43.

With FEDEVKRLGWQQQAELQEWEERLQ [L19W] as the variant, how does the protein stability index read?
The protein stability index was 3.92.

Which protein stability index does the source give for FEDEVKRLGWQQQAELQESEERLQ [L19S] here?
The protein stability index was 4.39.

For FEDEVKRLGWQQQAELQEIEERLQ [L19I], which protein stability index is on record?
Its protein stability index is 4.27.

Which protein stability index does the source give for FEDEVKRLGWQQQAELQEEEERLQ [L19E] here?
The protein stability index was 5.22.

Which protein stability index does the source give for FEDEVKRLGWQQQAELQEGEERLQ [L19G] here?
The protein stability index was 5.4.

Which protein stability index does the source give for FEDEVKRLGWQQQAELQEAEERLQ [L19A] here?
Its protein stability index is 3.48.

For FEDEVKRLGWQQQAELQEKEERLQ [L19K], which protein stability index is on record?
The protein stability index was 3.24.

For FEDEVKRLGWQQQAELQEPEERLQ [L19P], which protein stability index is on record?
Its protein stability index is 5.42.

For FEDEVKRLGWQQQAELQEYEERLQ [L19Y], which protein stability index is on record?
Its protein stability index is 4.14.

With FEDEVKRLGWQQQAELQEDEERLQ [L19D] as the variant, how does the protein stability index read?
Its protein stability index is 5.22.

For FEDEVKRLGWQQQAELQETEERLQ [L19T], which protein stability index is on record?
Its protein stability index is 4.65.

Which protein stability index does the source give for FEDEVKRLGWQQQAELQEQEERLQ [L19Q] here?
Its protein stability index is 4.17.

Which protein stability index does the source give for FEDEVKRLGWQQQAELQKLEERLQ [E18K] here?
The protein stability index was 4.41.

With FEDEVKRLGWQQQAELQCLEERLQ [E18C] as the variant, how does the protein stability index read?
Its protein stability index is 3.17.

For FEDEVKRLGWQQQAELQWLEERLQ [E18W], which protein stability index is on record?
The protein stability index was 2.4.

For FEDEVKRLGWQQQAELQALEERLQ [E18A], which protein stability index is on record?
The protein stability index was 3.84.

With FEDEVKRLGWQQQAELQILEERLQ [E18I] as the variant, how does the protein stability index read?
The protein stability index was 1.74.

For FEDEVKRLGWQQQAELQRLEERLQ [E18R], which protein stability index is on record?
Its protein stability index is 2.74.

With FEDEVKRLGWQQQAELQNLEERLQ [E18N] as the variant, how does the protein stability index read?
Its protein stability index is 3.94.

With FEDEVKRLGWQQQAELQGLEERLQ [E18G] as the variant, how does the protein stability index read?
Its protein stability index is 4.68.

For FEDEVKRLGWQQQAELQLLEERLQ [E18L], which protein stability index is on record?
Its protein stability index is 2.63.

For FEDEVKRLGWQQQAELQQLEERLQ [E18Q], which protein stability index is on record?
The protein stability index was 3.91.

For FEDEVKRLGWQQQAELQTLEERLQ [E18T], which protein stability index is on record?
Its protein stability index is 4.47.

With FEDEVKRLGWQQQAELQPLEERLQ [E18P] as the variant, how does the protein stability index read?
Its protein stability index is 4.72.

Which protein stability index does the source give for FEDEVKRLGWQQQAELQVLEERLQ [E18V] here?
Its protein stability index is 3.84.

Which protein stability index does the source give for FEDEVKRLGWQQQAELQMLEERLQ [E18M] here?
Its protein stability index is 2.89.

With FEDEVKRLGWQQQAELQHLEERLQ [E18H] as the variant, how does the protein stability index read?
Its protein stability index is 3.37.

For FEDEVKRLGWQQQAELQSLEERLQ [E18S], which protein stability index is on record?
Its protein stability index is 4.7.

With FEDEVKRLGWQQQAELQFLEERLQ [E18F] as the variant, how does the protein stability index read?
Its protein stability index is 2.13.

For FEDEVKRLGWQQQAELQYLEERLQ [E18Y], which protein stability index is on record?
Its protein stability index is 2.69.

With FEDEVKRLGWQQQAELQDLEERLQ [E18D] as the variant, how does the protein stability index read?
The protein stability index was 4.61.

For FEDEVKRLGWQQQAECQELEERLQ [L16C], which protein stability index is on record?
The protein stability index was 4.75.

Which protein stability index does the source give for FEDEVKRLGWQQQAESQELEERLQ [L16S] here?
The protein stability index was 4.91.

With FEDEVKRLGWQQQAERQELEERLQ [L16R] as the variant, how does the protein stability index read?
The protein stability index was 4.04.

Which protein stability index does the source give for FEDEVKRLGWQQQAEKQELEERLQ [L16K] here?
The protein stability index was 4.88.

For FEDEVKRLGWQQQAENQELEERLQ [L16N], which protein stability index is on record?
Its protein stability index is 4.87.

Which protein stability index does the source give for FEDEVKRLGWQQQAEPQELEERLQ [L16P] here?
Its protein stability index is 5.24.

With FEDEVKRLGWQQQAEEQELEERLQ [L16E] as the variant, how does the protein stability index read?
The protein stability index was 5.1.

With FEDEVKRLGWQQQAEWQELEERLQ [L16W] as the variant, how does the protein stability index read?
Its protein stability index is 3.93.

For FEDEVKRLGWQQQAEHQELEERLQ [L16H], which protein stability index is on record?
The protein stability index was 4.84.

With FEDEVKRLGWQQQAEYQELEERLQ [L16Y] as the variant, how does the protein stability index read?
The protein stability index was 4.13.

Which protein stability index does the source give for FEDEVKRLGWQQQAEGQELEERLQ [L16G] here?
The protein stability index was 5.23.

Which protein stability index does the source give for FEDEVKRLGWQQQAEDQELEERLQ [L16D] here?
The protein stability index was 5.11.

For FEDEVKRLGWQQQAEMQELEERLQ [L16M], which protein stability index is on record?
Its protein stability index is 4.48.

Which protein stability index does the source give for FEDEVKRLGWQQQAEFQELEERLQ [L16F] here?
The protein stability index was 4.15.

For FEDEVKRLGWQQQAEQQELEERLQ [L16Q], which protein stability index is on record?
Its protein stability index is 4.09.

For FEDEVKRLGWQQQAEAQELEERLQ [L16A], which protein stability index is on record?
The protein stability index was 4.34.

With FEDEVKRLGWQQQAEVQELEERLQ [L16V] as the variant, how does the protein stability index read?
Its protein stability index is 4.86.

With FEDEVKRLGWQQQAETQELEERLQ [L16T] as the variant, how does the protein stability index read?
Its protein stability index is 5.08.

For FEDEVKRLGWQQQAEIQELEERLQ [L16I], which protein stability index is on record?
Its protein stability index is 3.89.

With FEDEVKRLGWQQQAELQELEDRLQ [E21D] as the variant, how does the protein stability index read?
The protein stability index was 4.27.

With FEDEVKRLGWQQQAELQELECRLQ [E21C] as the variant, how does the protein stability index read?
Its protein stability index is 4.38.

For FEDEVKRLGWQQQAELQELEARLQ [E21A], which protein stability index is on record?
The protein stability index was 4.69.

Which protein stability index does the source give for FEDEVKRLGWQQQDELQELEERLQ [A14D] here?
The protein stability index was 5.2.

With FEDEVKRLGWQQQNELQELEERLQ [A14N] as the variant, how does the protein stability index read?
The protein stability index was 4.64.

With FEDEVKRLGWQQQYELQELEERLQ [A14Y] as the variant, how does the protein stability index read?
Its protein stability index is 2.29.

With FEDEVKRLGWQQQKELQELEERLQ [A14K] as the variant, how does the protein stability index read?
The protein stability index was 5.32.

With FEDEVKRLGWQQQSELQELEERLQ [A14S] as the variant, how does the protein stability index read?
Its protein stability index is 4.44.

With FEDEVKRLGWQQQPELQELEERLQ [A14P] as the variant, how does the protein stability index read?
The protein stability index was 5.4.

For FEDEVKRLGWQQQLELQELEERLQ [A14L], which protein stability index is on record?
Its protein stability index is 1.85.

Which protein stability index does the source give for FEDEVKRLGWQQQHELQELEERLQ [A14H] here?
Its protein stability index is 4.27.

With FEDEVKRLGWQQQCELQELEERLQ [A14C] as the variant, how does the protein stability index read?
The protein stability index was 3.

For FEDEVKRLGWQQQQELQELEERLQ [A14Q], which protein stability index is on record?
The protein stability index was 4.61.

For FEDEVKRLGWQQQFELQELEERLQ [A14F], which protein stability index is on record?
Its protein stability index is 2.63.

With FEDEVKRLGWQQQTELQELEERLQ [A14T] as the variant, how does the protein stability index read?
Its protein stability index is 2.53.

With FEDEVKRLGWQQQWELQELEERLQ [A14W] as the variant, how does the protein stability index read?
The protein stability index was 2.53.

Which protein stability index does the source give for FEDEVKRLGWQQQMELQELEERLQ [A14M] here?
The protein stability index was 4.37.

For FEDEVKRLGWQQQEELQELEERLQ [A14E], which protein stability index is on record?
The protein stability index was 5.64.

Which protein stability index does the source give for FEDEVKRLGWQQQIELQELEERLQ [A14I] here?
The protein stability index was 1.73.

Which protein stability index does the source give for FEDEVKRLGWQQQGELQELEERLQ [A14G] here?
The protein stability index was 5.26.

Which protein stability index does the source give for FEDEVKRLGWQQQRELQELEERLQ [A14R] here?
The protein stability index was 4.7.

Which protein stability index does the source give for FEDEVKRLGWQQQAELLELEERLQ [Q17L] here?
Its protein stability index is 4.54.

For FEDEVKRLGWQQQAELGELEERLQ [Q17G], which protein stability index is on record?
The protein stability index was 5.2.

With FEDEVKRLGWQQQAELMELEERLQ [Q17M] as the variant, how does the protein stability index read?
The protein stability index was 4.57.

Which protein stability index does the source give for FEDEVKRLGWQQQAELDELEERLQ [Q17D] here?
The protein stability index was 3.55.

Which protein stability index does the source give for FEDEVKRLGWQQQAELIELEERLQ [Q17I] here?
Its protein stability index is 4.25.

Which protein stability index does the source give for FEDEVKRLGWQQQAELAELEERLQ [Q17A] here?
Its protein stability index is 4.22.

For FEDEVKRLGWQQQAELFELEERLQ [Q17F], which protein stability index is on record?
Its protein stability index is 3.98.

Which protein stability index does the source give for FEDEVKRLGWQQQAELEELEERLQ [Q17E] here?
The protein stability index was 3.12.

For FEDEVKRLGWQQQAELHELEERLQ [Q17H], which protein stability index is on record?
Its protein stability index is 4.34.

Which protein stability index does the source give for FEDEVKRLGWQQQAELWELEERLQ [Q17W] here?
The protein stability index was 2.31.

For FEDEVKRLGWQQQAELSELEERLQ [Q17S], which protein stability index is on record?
The protein stability index was 4.75.

For FEDEVKRLGWQQQAELCELEERLQ [Q17C], which protein stability index is on record?
The protein stability index was 4.01.

Which protein stability index does the source give for FEDEVKRLGWQQQAELTELEERLQ [Q17T] here?
Its protein stability index is 4.78.

With FEDEVKRLGWQQQAELKELEERLQ [Q17K] as the variant, how does the protein stability index read?
The protein stability index was 4.88.

For FEDEVKRLGWQQQAELNELEERLQ [Q17N], which protein stability index is on record?
Its protein stability index is 5.34.

For FEDEVKRLGWQQQAELRELEERLQ [Q17R], which protein stability index is on record?
Its protein stability index is 4.71.

— the supplement of paper PMC10567573
